Measured values reported in the supplement of paper PMC10567573.

B1: CDC25B (parent)
chain: KSPIAPCSLDKRVILIFHCEFSSE
B2: FAM189A2 (parent)
chain: PRCDLVDLGEGKICFCCEEFQPAK

Variants of: B1
Test: protein stability index of a GFP-peptide fusion (GPS, HEK-293T) (PSI 1-6); higher = more stable
Details: c terminus: a fixed tail appended
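Further: lentivirally expressed fusions sorted by FACS into six bins by GFP to DsRed ratio, PSI derived from sequencing read proportions per bin multiplied by bin number.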

Protein stability index: each site, then its substitutions
F21: Q 2.53, A 2.32, P 2.66, G 2.94, M 3.21, N 1.88, K 1.5, I 2.1, S 2.69, T 3.13, H 2.91, D 1.51, R 2.15, C 2.97
E24: Y 2.39, V 2.98, K 3.12, G 2.09, D 2.77, T 2.44, L 1.98, Q 2.38
S23: Q 2.79, L 2.04, A 4.14, V 2.95, W 3.34, T 2.89, F 4.12, N 2.25, C 1.23, M 2.11, E 1.73, I 2.64
E20: N 3.58, S 3.75, P 3.36, I 2.55, H 2.2, M 2.51, V 2.73, K 1.64
S22: Q 2.5, D 3.4, P 2.1, A 3.41, F 2.21, C 1.43, T 2.88, W 4.72, H 2.09, I 1.34, M 2.66, Y 2.31, K 2.08

Variants of: B2
Test: as above
Details: c terminus: a fixed tail appended

Protein stability index of substitutions, site by site:
Q21: P 2.86, G 3.07, M 2.24, E 3.87, A 3.44, F 2.24, V 2.66, D 3.61, R 2.44, S 2.65, I 2.68, H 3.1
C17: W 2.51, H 3.11, Y 2.66, I 2.05, K 3.64, G 3.92, S 3.5, Q 3.12, M 2.66, N 3.96, E 4.67, R 3.28
E10: Y 2.29, Q 2.73, C 2.63, P 2.88, F 2.35, R 2.54, W 1.85, V 2.26, K 2.82, S 2.36, A 2.56, G 3
P22: W 3.08, G 3.86, F 3.12, V 2.69, M 3.07, I 2.75, A 3.31, D 4.31, H 3.13, T 3.23, C 3.51
C16: E 3.64, F 2.66, W 2.1, T 3.05, L 2.71, N 3.93, P 4.24, Y 2.22, A 3.45, K 3.76, D 3.88
L5: P 3.39, G 4.44, I 3.13, S 3.03, F 2.6, E 3.84, Y 2.85, A 3.98, C 4.89, N 3.52, D 3.95, W 2.16, H 4.84
V6: H 4.45, F 2.71, P 3.03, L 2.6, Q 3.92, I 2.49, Y 2.73, D 3.34, E 3.48, K 3.78, G 3.46
D4: S 2.7, F 2.11, P 3.39, T 2.7, V 2.5, N 4.71, H 2.85
K12: I 2.46, W 2.32, A 3.51, R 1.99, C 3.45, Q 3.89, E 3.6, V 2.35, H 4.16, S 3.38, G 2.21, M 2.04, F 2.85
F20: C 3.15, P 4, K 3.89, D 4.05, N 3.86, R 4.13, E 4.91, H 4.34, S 3.89, L 2.42, V 3.75, Y 3.1, M 3.16
A23: K 3.36, S 2.66, Y 2.28, N 3.15, H 3.07, I 2.65, E 4.35, Q 3.5, F 2.85, R 2.24, T 2.79, W 3.56, L 3.1, D 3.12, C 3.98
E18: T 2.45, C 2.62, L 1.71, I 2.63, Y 2.07, R 2.28, V 2.53, P 2.98, H 2.85, G 2.64, F 2.29, A 3.34
G11: E 3.44, F 1.51, N 3.33, H 2.81, C 2.45, D 3.28, I 1.86, K 2.4, Y 2.52, M 2.21, T 2.64, R 2.55, L 1.95, W 2.69, A 2.63
E19: D 2.97, S 2.26, I 1.55, C 3.96, P 3.04, T 3.13, H 2.94, R 2.21
I13: N 3.78, C 3.38, Y 2.3, V 2.86, H 3.89, T 3.1, R 3.44, G 3.55, F 3.02, S 3.57, Q 3.27, P 3.41, E 3.73, M 4.02
K24: F 2.23, Q 2.25, I 2.48, P 3.05, C 3.39, M 2.32, S 2.72, A 2.66, W 1.99, T 3, R 2.89, N 3.37
C14: T 3.47, S 3.3, W 2.51, K 3.94, P 3.94, A 3.62, F 2.16, E 4.24, Q 3.79, N 4.56, V 3.06, D 4.07, H 3.48, I 2.39
R2: A 2.83, S 3.06, P 3.8, D 3.72, M 2.41, V 2.17, G 3.18, N 2.9, F 1.65, W 1.98, E 3.35, C 3.55
L8: E 3.65, D 3.67, I 3.13, F 3.46, T 3.92, Y 2.21, K 3.41, S 3.97, G 4.48, M 3.74, H 3.98, V 2.97
F15: Q 4.13, A 3.94, S 4.47, L 3.39, R 3.33, V 3.43, W 3.04, M 2.8
P1: Q 2.9, R 2.43, N 3.39, C 2.83, L 2.84, M 1.86, A 2.24, G 3.14, K 3.14, W 2.43, F 1.85, S 3, E 3.16
D7: F 2.03, Y 2.12, A 2.61, K 3.76, G 3.28, C 2.92, Q 2.2, V 1.89, P 3.17, N 2.76, S 2.21, L 2.3
C3: I 2.05, R 2.63, H 3.31, E 3.55, T 2.44, S 2.43, F 2.22, N 2.25, G 2.98, W 2.69
G9: T 2.83, P 2.99, W 2.08, I 2.24, K 2.96, Y 2.94, E 2.86
